This series in a line: label from the status in PepcDB records.
Regarding “TEALRMEREALLAEMGVAVREDGGTVGVFSPKKTPHLVNLNEDPLMSECLLYHIKDGVTRVGQVDMDIKLTGQFIREQHCLFRSIPQPDGEVVVTLEPCEGAETYVNGKLVTEPLVLKSGNRIVMGKNHVFRFNHPEQARLE”, the protein production result is on record as “failed”. For “TETSPDKWLIDGDTPLDEVERAIGYELPEGDYETISGLLFDHANALLKTGDVIEIPLDFEPEDYLNNTSPTQRILRITVLEVERNVPVKLALALLEDHPDNHPAPKENR”, the protein production result is on record as “not failed”.

As for “TGGLAIIQSMKHKLPPSERKLADYILAHPHKAIESTVNEISALANSSDAAVIRLCKSLGLKGFQDLKMRVAGDLAKPTFQGYRDIVPHEPLPSISEKTAGNAIQAI”, the protein production entry is reported as “failed”. As for “TIDLDYQRLALESLRFGHQKILEKIAKEKPKTNASNEDEDNLNASMIVTDTSTGKILALVGGIDYKKSAFNRATQAKRQFGSAIKPFVYQIAFDNGYSTTSKIPDTARNFENGNYSKNSEQNHAWHPSNYSRKFLGLVTLQEALSHSLNLATINLSDQLGFEKIYQSLSDMGFKNLPKDLSIVLGSFAISPIDAAEKYSLFSNYGTMLKPMLIESITNQQNDVKTFTPMETKKITSKEQAFLTLSVLMDAVENGTGSLARIKGLEIAGKTGTSNNNIDAWFIGFTPTLQSVIWFGRDDNTPISKGATGGVVSAPVYSYFMRNILAIEPSLKR”, the protein production result is “failed”. Consider “TIDLNYQNKVESILKQYYGSELSSGRASFSEGMYAVAIEPSTGKVLAMAGLKNDHGNLVDDSLGTIAKNFTPGSVVKGATLSSGWENKVLRGNEVLYDQEIANIRSWFTRGLTPISAAQALEYSSNTYMVQVALRLMGQDYNTGDALTDRGYQEAMAKLRKTYGEYGLGVSTGLDLPESEGYVPGKYSLGTTLMESFGQYDAYTPMQLGQYISTIANNGNRLAPHVVSDIYEGNDSNKFAQLVRSITPKTLNKIAISDQELAIIQEGFYNVVNSGSGYATGTSMRGNVTTISGKTGTAETFAKNVNGQTVSTYNLNAIAYDTNRKIAVAVMYPHVTTDTTKSHQLVARDMIDQYISQFTGQ”, for which the protein production entry is listed as “failed”. For “TIDPKAQKAAWDGLTDLKGARGAVVALDPQTGKVLAMVSAPSYDPSAFAGSTFKESDRFVELDKKKNKPLANRALRETYPPGSTFKILTAAAALEHGIVTDVDARTDAVSPYPLPQSTNKIGSEAGDAVCNKASMKTAMQHSCNNVFLDAASKLGQDKMRETAEKFGFNEDVYSDDFGDLLATKSLYPEDLDKPGTALTGMGQGSLTSTPMQMALVTAGIANDGKVMQPYVVDEVKGPDLDTLEKTEPAVMSEAVSAETAQKVQEMMEFTAKEGSARRAQIDGITVGGKTGTAQRGVDVNDEVPYGWFVSYGKKDDGSSVAVAVFIDPTDMDISRADISGGGLGAPIAKSVMKAVLK”, the protein production entry is given as “failed”.

Take “TIDRDIQWAAQNAITEQVEKSGADRGYVMVQDTRTGEILAMANSPGFDPNDLSKASSAALGNAALQDAYEPGSTAKVMSMAAVLEENVATPETHVVVPNRLHRGDRLFQDDIDHPTWNLTLNGVLAKSSNIGTILAAGQLGKTQKQANEVLYSYMRKFGIGLPTGLGFPGETSGILAPAAKWSTSQQYTIPFGQGVSINAMQAASVYSTIANGGVRVEPTLVRGTKGPDGRFTPAPRPKKTRVVSEKTAKTLAQMLESVVDDEEGTGAKARIPGYRVAGKTGTANRVDPATGKYHGYTSSFAGFAPADNPRITVYCAIQNATQGSYFGGQICGPIYKQVMEFALKTLQVPPTGAGAAHLPVTFTP”: the protein production entry is reported as “failed”. Turning to “TKALNFTYTLDSGVKGTLYQFPAEYTLLFINNPGCHACAEMIEGLKASPVINGFTAAKKLKVLSIYPDEELDEWKKHRNDFAKEWTNGYDKELVIKNKNLYDLRAIPTLYLLDKNKTVLLKDATLQKVEQYLAERG”, the protein production entry was “not failed”.

With “TKDWKFTVSMNTAYNKNKIISLPYNGLPNNMQDAYQVYTGRKLADGTYERQWVGGYQEGQEYGVIYAFKSLGIYKSESEIPGNLIDRSTYTENGADAKVLYGPEAWAKLSDAEKEKGLPIQAGDVKWQDVNGDGVIDDYDRVKLGNTIPHWTGGFNINTSWKGLTLNCRLDYALGYWVHDWKTPWIMGNMQGTFNTISLVKDSWSESNPNGKYPVYGWADFLGKRNYDRISDINCYRGDYLAFREISLSYSLPQSWIHKSGLSKVDVSVTAQNLGYITAAKNMATPEYGVSQNGGYPLPRTVVLGLNVTF”, the protein production result is recorded as “failed”.

As to “TLDAGLQRQLEDLALNWKSRLPPRSSLAMVVVDHTDMKVRGWVGSADITDDSRFGHIDMVSAVRSPGSVLKPFIYAMAMDEGLIHPASLLQDVPRRFSDYRPGNFDSGFHGPVSASEALVRSLNLPAVQVLEAYGPKRFAANLRNAGLPLTLPAGAEPNLSLILGGAGARLEDIVAAYSAFARHGKAARLRLKPSDPLTERALMSPGAAWIVRRILAGEAQPVPDASLPQAVPLAWKTGTSYGYRDAWAVGLNARYLIGIWTGRPDGTPVVGQFGFASAVPLLNQVNNLLLARPAMSRGGL”, the protein production entry is on record as “failed”. With “TLDPSAQAIAEAALARGVQAHQGQYGAVIMLETRTGRILAAATYPPFDPGNWRGKPDTQERVKNRAFLDAYEPGSTMKALTIAAALNDGITTPDTVYETPMSRHVGGRWGHTIGDAVDHPSSLTTQQVLRYSSNVGMSHIVEGFTYQKLRDYLAAYGFGQPVNLTGAVTAQGILKPIDKWNDLERATNSFGQGVSGTTLQVAAAYNAVANDGLYVTPRLIEGAPAGERHEVVRAASARTVREMLKAIVVEGKFASLEGYDLSGKTGTAQVATENGYSNSVYKSTYAGFFPSDTPRVTVAVMVHGAQGEHHGSQVAAPIFREIASGMLSEWGTAPE”, the protein production entry is “failed”. As to “TLLLCFIVAGLTGLGDNFTTISWFTFLDFRVQGDYLYFSPLAQSLDEGQWWRLVSPMLLHFGVLHLAMNSLWYWELGKRIELRQGPWALLGLTLLFSLVSNLAQHYTSGPSLFGGLSGVLYGLLGHIWLYQWLAPDRYFNLPKGVLVMMLIWLVVCLTGVVGTLGLGQIANAAHVGGLLIGCLTGLLGGALARRKLSA”, the protein production result was “failed”. Next, “TLPPRGRLRIDVPLALAHAILIPNLKHFQSLYPDIDVILVSSDKKTDLISEGVDCLVRLGELQDSSFISRRLGDIRMVTCAAPSYLQQYGRPETLADLDQHRAINFFSDHSRDVMEWKFTKDGKIVSLRPVGSMLVDNSDILL”: “failed”; “TLQEYQKRMKKLDQQYKERIRNAELFLQLETEQVERNYIKEKKAAVKEFEDKKVELKENLIAELEEKKKMIENEKLTMELTGDSMEVKPIMTRKLRRRPNDPVPIPDKRRKPAPAQLNYLLTDEQIMEDLRTLNKLKSPKRPASPSSPEHLPATPAESPAQRFEARIEDGKLYYDKRWYHKSQAIYLESKDNQKLSCVISSVGANEIWVRKTSDSTKMRIYLGQLQRGLFVIRRRSAA”: “failed”. “TLRNYPLTCKVVYSYKASQPDELTIEEHEVLEVIEDGDMEDWVKARNKVGQVGYVPEKYLQFPTS”: the protein production result was “not failed”. Under “TPVRIESFDNSNIMGTSPVSAMVVFVNGKPSKKDYRKYKIKTVVGPDDYASMREVIRRRYGRVQREALTPPDLIVIDGGQGQVNIAKQVIQEELGLDIPIAGLQKNDKHQTHELLFGDPLEVVDLSRNSQEFFLLQRIQDEVHRFAITFHRQLRSKNSFSSQLDGIDG” stands “failed”; under “TSSTIFSGVAIYVNGYTDPSAEELRKLMMLHGGQYHVYYSRSKTTHIIATNLPNAKIKELKGEKVIRPEWIVESIKAGRLLSYIPYQLYT”, “not failed”; under “TTQKGHRQKSFYRGVRAEKWAAWWLRCKGFHIAEIRFKTKCGEIDLIARRGNLVLIVEVKARSTLAEAMAAVSRVNERRIEAAADIWLARQKDRALLCVRFDLIAILPWRWPQHIPAFFM”, “failed”.

Turning to “TVACPGRGRARPVCWKRSEMATCAVEVFGLLEDEENSRIVRVRVIAGIGLAKKDILGASDPYVRVTLYDPMNGVLTSVQTKTIKKSLNPKWNEEILFRVHPQQHRLLFEVFDENRLTRDDFLGQVDVPLYPLPTENPRLERPYTFKDFVLHPRSHKSRVKGYLRLKMTYLPKTSGSEDDNAEQAEELEPGWVVLDQPDAACH”, the protein production result is “failed”. Take “TVLYVHGGAWFQDPLENHFEYLDLLVDALDARVIMPVYPKIPHRDYRTTFELLTKIYKRLLTKIDEPENLVIIGDSAGGQIALAFAQMLKKEQLSQPGHIVLISPVLDATFKNPEARKYEKEDPMLGIDGSKYLVELWAGDAPLDDYKMSPMNGDLEGLGHITLTVGTKETLYPDAVKFSHMLNDKGIKHQFIPGYNLFHIYPLFPIPERQRFLEQLKKIIVTKEL”: the protein production result is “failed”. Consider “TYNYYDHAASAGTGQYLNDVQVETIELPVDYDADFVIPVYGDSMEPKYHSGDYVFVKLSVELTDGDIGVFEYYGDAYIKQLLINDKGAFLHSLNQCGDYPDIPIDRDSDFRIIGEVMGSYRER”, for which the protein production entry is given as “failed”. In the case of “VASGYGGIRVGGPYFDDLSKGQVFDWAPGVTLSLGLAAAHQSIVGNRLRLALDSDLCAAVTGMPGPLAHPGLVCDVAIGQSTLATQRVKANLFYRGLRFHRFPAVGDTLYTRTEVVGLRANSPKPGRAPTGLAGLRMTTIDRTDRLVLDFYRCAMLPASPDWKPGAVPGDDLSRIGADAPAPAADPTAHWDGAVFRKRVPGPHFDAGIAGAVLHSTADLVSGAPELARLTLNIAATHHDWRVSGRRLVYGGHTIGLALAQATRLLPNLATVLDWESCDHTAPVHEGDTLYSELHIESAQAHADGGVLGLRSLVYAVSDSASEPDRQVLDWRFSALQF”, the protein production result is “not failed”. As for “VAYLGPAGTFTEEALYKFADAGVFGDGEIEQLPAKSPQEAVDAVRHGTAQFAVVAIENFVDGPVTPTFDALDQGSNVQIIAEEELDIAFSIMVRPGTSLADVKTLATHPVGYQQVKNWMATTIPDAMYLSASSNGAGAQMVAEGTADAAAAPSRAAELFGLERLVDDVADVRGARTRFVAVQAQAA”, the protein production result is “failed”. With “VDCIGCRKCEEVCLSDALDIMGKDVSVSELMDIIMQDYDFYISSGGGVTIGGGEMSLQTDFAVALLRECKKMMINTAVETQATTNVANYEKLAQVVDQFLIDIKHIDTTQHKALFGIGNENVRRNLERLMDLGANVVIRMPLVRGYNDSYDAITGAINYAMALSKRGNLQRIDILPYHQFGRN”, the protein production result was “failed”.

“VDIVVIGAGFTGLSTAYHIRKTDSSASVVVLEGECVAFGASGRTSGWVVPIPVLDPATARTLYGKERLTELQNFAWDGLDYVRDLISRENMDSDFEVPGVTFTTLKGHEKRLETFIKYWKDQPRSSDSIIMDKATVSNALNSDAFSGGCRMLHSGQVNPVKHSRELKRIAQEAGAQIFEQTPVLDIEDHGTYFILKTPEGQVRTKHIVLGTNGFTHLLPATLGLRRAQLPMFVYQLMTEPLSEADWKALGWKHRAQFYDKTTYCPPTCRTTVDGRLQFNLCDVYLGTGRSMDEAQRMQFYDAAERMYKKMFPAFKNLRVAQRWSGACSISFDVRPQVGTLHDGRISYGYGYSGAGVMMSQNFGRILADLALQRKTELTE”: the protein production entry is “failed”.

On to “VEIRTGEFEDIAGITDIFNFYIEHTNARFEEFPFTLENREEWFSQFSRTTKYQIYVAVENGVLQGFACSQKYRAIPAFDDTVEVSVYLAQEAKGKGLGSKLYTQLFSSIRAYGVHRILSGVALPNDASVALHKRFGFREVGIFNEYAKKHGQYISSVWLEKALNVESAL”, for which the protein production result was “failed”. Under “VFHPVECSYCHSESMMGFRYRCQQCHNYQLCQDCFWRGHAGGSHSNQHQMKEYTSW” stands “not failed”; under “VGDGKNQIFVKSLDGYREVQITDEKEGVSTFKWGPTGKGLYYVTQSKECEEIKKRKDLYGDFQHIGKEHQNNCLYYIEIEKVIQSDTDEHKNRVVYQLTDGKDFHIHEFDISNDGKKVVFMATPSSNMADYINGDLYILHIKAGELQKLNVDKLLGGSVCFSPDGSEICYTASIREKGYYRNHIQDSTLEIYDINTGELIQPLTDFD”, “failed”.
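Also: failed if final PepcDB status was selected cloned or expressed and not failed if soluble or beyond.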
